Data published in US7442378B2, “Attenuated circovirus” (The University of Melbourne, priority 2001, dated 2008).
Entries after “also recorded” stand apart in the source; their conditions may differ.

Experiments:
CAV VP2-GST PTPase = assay: Sodium orthovanadate inhibition of PTPase activity; format: biochemical, Chicken anaemia virus
Method: Stock 1 mM […] was made in distilled water and adjusted to pH 10 with sulphuric acid. Once dissolved, stock […] was added to AB and TB buffer at a ratio of 1:1:1 and adjusted to pH 7. Inhibition studies were conducted with 0.1 mM, 0.01 mM and 0.001 mM of sodium orthovanadate. All other reaction conditions were as described above. Assays were with 10 nmol substrate and 9 μg CAV VP2-GST and were in triplicate for each concentration of inhibitor.

[1] = known PTPases, comparison values; cited from earlier work
[2] = tested on: T1, phosphopeptide substrate H-Glu-Asn-Asp-Tyr(PO3H2)-Ile-Asn-Ala-Ser-Leu-OH
T1 sequence: ENDYINASL

[3] = biological target: T2, phosphopeptide substrate H-Glu-Asn-Asp-Tyr(PO3H2)-Ile-Asn-Ala-Ser-Leu-OH
T2 chain: ENDYINASL

[4] = tested on: peptide substrate ENDY(Pi)INASL; format: biochemical
[5] = tested on: peptide substrate ENDY(Pi)INASL; assay: Enzyme pH optimum of CAV VP2-GST PTPase; format: biochemical
Method: Triplicate reactions were set up at pH 4, pH 5, pH 6, pH 7, pH 8 and pH 9. Assays were with 10 nmol substrate and 9 μg CAV VP2-GST and all other reaction conditions were as described above. Prior to addition of the malachite green reagent the pH was neutralised to pH 7 with either sulphuric acid or sodium hydroxide.

In the case of `[Na+].[Na+].[Na+].[O]=[V]([O-])([O-])[O-]` [sodium orthovanadate], the “Inhibition of VP2-GST PTPase activity” value (CAV VP2-GST PTPase) is reported as “specifically inhibited; also recorded: completely inhibited” and the “Orthovanadate concentration giving maximal inhibition of CAV VP2 activity (as low as)” value (CAV VP2-GST PTPase) is reported as 0.001 mM.

In the case of “PTP1B: low Mr PTPase cited for comparison [reference compound]”, the Vmax [1] is listed as 20 000 U/mg min.

With TLMV ORF2-GST fusion protein the “PTPase activity (steady state)” value [2] was “The steady state activity was equivalent to that demonstrated for CAV VP2”.

B1: CAV VP2-GST fusion protein (protein)
chain: MHGNGGQPAAGGSESALSREGQPGPSGAAQGQVISNERSPRRYSTRTINGVQATNKFTAVGNPSLQRDPDWYRWNYSHSIAVWLRECSRSHAKICNCGQFRKHWFQECAGLEDRSTQASLEEAILRPLRVQGKRAKRKLDYHYSQPTPNRKKVYKTVRWQDELADREADFTPSEEDGGTTSSDFDEDINFDIGGDSGIVDELLGRPFTTPAPVRIV
In the case of B1, the “Km (PTPase assay, malachite green, Lineweaver-Burk plot)” value [3] is reported as “Km to be 16.95 µM”, the “Vmax (PTPase assay, malachite green, Lineweaver-Burk plot)” value [3] is reported as “Vmax was estimated to be 14 280 U/mg min” and the Vo with 0.001 mM orthovanadate, 10 nmol substrate [3] is reported as 0.002. For the same molecule, the Vo with 0.01 mM orthovanadate, 10 nmol substrate [3] was 0, the Vo with 0.1 mM orthovanadate, 10 nmol substrate [3] was 0 and the Vo without orthovanadate, 10 nmol substrate [3] was 5.61. It also gave a mean Vo (nmol) at pH 4, 10 nmol substrate [3] of 1.75 nmol, a mean Vo (nmol) at pH 5, 10 nmol substrate [3] of 1.47 nmol and a mean Vo (nmol) at pH 6, 10 nmol substrate [3] of 5.64 nmol. The mean Vo (nmol) at pH 7, 10 nmol substrate [3] was 5.61 nmol, the mean Vo (nmol) at pH 8, 10 nmol substrate [3] was 1.83 nmol and the mean Vo (nmol) at pH 9, 10 nmol substrate [3] was 0 nmol.

B2: VP2-GST: CAV viral protein 2 produced as fusion with glutathione S-transferase in E. coli (protein)
chain: B1 chain
modifications: left off: a dimerising Fc or GST
notes: CAV viral protein 2 produced as fusion with glutathione S-transferase in E. coli
For B2, the 1/Vmax ([4]; linear regression of double reciprocal plot) was 0.060, the Vmax ([4]; substrate ENDY(Pi)INASL, Lineweaver-Burk plot, Vo at 1 min) was 14 280 U/mg min and the “mean Vo, PTPase activity” value ([5]; pH 4, S 10 nmol) was 1.746 nmol. The “mean Vo, PTPase activity” value ([5]; pH 5, S 10 nmol) was 1.474 nmol, the “mean Vo, PTPase activity” value ([5]; pH 6, S 10 nmol) was 5.636 nmol and the “mean Vo, PTPase activity” value ([5]; pH 7, S 10 nmol) was 5.612 nmol. For the same molecule, the “mean Vo, PTPase activity” value ([5]; pH 8, S 10 nmol) was 1.829 nmol, the “mean Vo, PTPase activity” value ([5]; pH 9, S 10 nmol) was 0.000 nmol and the “pH of optimal PTPase activity” value ([5]; reactions at pH 4 to pH 9, listed as CAV VP2) was 6-7.

B3: CD45: high Mr PTPase from human spleen cited for comparison (protein, UniProt P08575 26-1306, looked up)
Receptor-type …: QSPTPSPTGLTTAKMPSVPLSSDPLPTHTTAFSPASTFERENDFSETTTSLSPDNTSTQVSPDSLDNASAFNTTGVSSVQTPHLPTHADSQTPSAGTDTQTFSGSAANAKLNPTPGSNAISDVPGERSTASTFPTDPVSPLTTTLSLAHHSSAALPARTSNTTITANTSDAYLNASETTTLSPSGSAVISTTTIATTPSKPTCDEKYANITVDYLYNKETKLFTAKLNVNENVECGNNTCTNNEVHNLTECKNASVSISHNSCTAPDKTLILDVPPGVEKFQLHDCTQVEKADTTICLKWKNIETFTCDTQNITYRFQCGNMIFDNKEIKLENLEPEHEYKCDSEILYNNHKFTNASKIIKTDFGSPGEPQIIFCRSEAAHQGVITWNPPQRSFHNFTLCYIKETEKDCLNLDKNLIKYDLQNLKPYTKYVLSLHAYIIAKVQRNGSAAMCHFTTKSAPPSQVWNMTVSMTSDNSMHVKCRPPRDRNGPHERYHLEVEAGNTLVRNESHKNCDFRVKDLQYSTDYTFKAYFHNGDYPGEPFILHHSTSYNSKALIAFLAFLIIVTSIALLVVLYKIYDLHKKRSCNLDEQQELVERDDEKQLMNVEPIHADILLETYKRKIADEGRLFLAEFQSIPRVFSKFPIKEARKPFNQNKNRYVDILPYDYNRVELSEINGDAGSNYINASYIDGFKEPRKYIAAQGPRDETVDDFWRMIWEQKATVIVMVTRCEEGNRNKCAEYWPSMEEGTRAFGDVVVKINQHKRCPDYIIQKLNIVNKKEKATGREVTHIQFTSWPDHGVPEDPHLLLKLRRRVNAFSNFFSGPIVVHCSAGVGRTGTYIGIDAMLEGLEAENKVDVYGYVVKLRRQRCLMVQVEAQYILIHQALVEYNQFGETEVNLSELHPYLHNMKKRDPPSEPSPLEAEFQRLPSYRSWRTQHIGNQEENKSKNRNSNVIPYDYNRVPLKHELEMSKESEHDSDESSDDDSDSEEPSKYINASFIMSYWKPEVMIAAQGPLKETIGDFWQMIFQRKVKVIVMLTELKHGDQEICAQYWGEGKQTYGDIEVDLKDTDKSSTYTLRVFELRHSKRKDSRTVYQYQYTNWSVEQLPAEPKELISMIQVVKQKLPQKNSSEGNKHHKSTPLLIHCRDGSQQTGIFCALLNLLESAETEEVVDIFQVVKALRKARPGMVSTFEQYQFLYDVIASTYPAQNGQVKKNNHQEDKIEFDNEVDKVKQDANCVNPLGAPEKLPEAKEQAEGSEPTSGTEGPEHSVNGPASPALNQGS
In the case of B3, the Vmax [1] is given as 1 000 U/mg min.
